Test results taken from the nanobody polyreactivity screen of Harvey et al. (2022).

Test: yeast display, Sf9 membrane polyspecificity reagent, FACS + sequencing; frameworks hold sequencing errors
How it was run: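 Galactose induction of a Saccharomyces cerevisiae BJ5465 synthetic nanobody display library ran 36–48 hours. The cells were then stained for 1 hour at 4 °C with 10% biotinylated, detergent-solubilized Sf9 membrane reagent, pulled down on streptavidin microbeads and FACS-sorted into low and high (top ~1%) gates on expression and reagent-binding fluorescence. Labels for polyreactivity follow the gate of origin.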

Sequence | polyreactivity (PSR sort gate)
QVQLVESGGGLVQAGGSLRLSFAASGSTFKRYLMGWYRQAPGKERELVAAISSRGGSTYYADSVKGRFTISRDYANNTVYLQMISLKPEYTAVFYCATANVRAEDYWGQGTQVTVSS | high polyreactivity
QVQLVESGGGLVQAGGSLRLSFAATGSILLRYAMGWYRQAPGKERELVAAISYDGGGTFYADSVKGRFTISRDNAKNTVYLQMHSLKPEDTAVYYCAARVIFRVKGLEYWGQGTQVTVSS | low polyreactivity
QVQLVESGGGLVQAGGSLRLSFAAYGRTIRWNAMGWYRQEPGKERELVAAITSRGGSTYYADSVKGRFTISRDNAKNTVYLQMNSLKPEDTAVYYCAKQPKPPPVTGYDYWGQGTQVTVSS | high polyreactivity
QVQLVESGGGLVQAGGSLRLSFAPSGRTIDPNAMGWYRQAPGKERELVAAITRTGVRKYYADSVKGRFTISRDNAKNTVYLQMNSLKPEDTAVYYCAASYSGRQDRYPHYDYWGQGTQVTVSS | low polyreactivity
QVQLVESGGGLVQAGGSLRLSGAASGGTFSNYAMGWYRPAPGKEREVVAAIRWRGGNTYYADSVKGRFTISRDNAKNTVYLQMNSLKPEDTAVYYCAAQTHDYTRSVGTTAYDYWGQGTQVTVSS | low polyreactivity
QVQLVESGGGLVQAGGSLRLSGAASGRIFWYNAMGWYRQAPGKEREVVAGITSGGRTNYADSVKGRFTISRDNAKNTVYLQMNSLKPEDTAVYYCAATHSLRMYYLGQGTQVTVSS | low polyreactivity
QVQLVESGGGLVQAGGSLRLSGAASGRTLKWYAMGWYRQPPGKERELVAAISWSGGSTYYADSVKGRFTISRDNAKNTVYVQMNSLKPEDTAVYYCAAYYIYSSVGKSLYASMEYWGQGTQVTVSS | low polyreactivity
QVQLVESGGGLVQAGGSLRLSGAASGSTFQYYAMGWYRQAPGKERELVAAISDGTNTNYADSVKGRFTISRDNAKNTVYLQMNSLKPEDTAVYYCAARFSSIVKYVGIGTDEYDYWGQGTQVTVSS | low polyreactivity
QVQLVESGGGLVQAGGSLRLSGAASGSTFRGYAMGWYRQAPGKERELFAAMTYISDSTYYADSVKGRFTISRDNAKNTVYLQMNSLKPEDTAVYYCNAYYDGDWRYTSQETGDHWGQGTQVTVSS | low polyreactivity
QVQLVESGGGLVQAGGSLRLSLAASGSIFSYYAMGWYRQAPWKERELVAAISYSGSDTYYADSVKGRFTISRDNAKNTVYLQMNSLNPEDTAVYYCAAEDPSYSYDYWGQGTQVTVSS | low polyreactivity
QVQLVESGGGLVQAGGSLRLSLAASGSNFSSYAMGWYRQAPGKEREWVAAIRLIGGTTYYADSVKGRFTISRDNAKNTVYLQMNSLKPEDTAVYYCNAPSYPDYIYWSQRYDYDYWGQGTKVTVSS | low polyreactivity
QVQLVESGGGLVQAGGSLRLSRAASGIMFGSYAMGWYRQAPGKERELVAAITSRGGSTYYADSVKGRFTISRDNAKNTVYLQMISLKPEDTAVYYCADVLYYWRVVYYVYADTGDYWGQCTQVTVSS | high polyreactivity
QVQLVESGGGLVQAGGSLRLSRAASGRIFHLYAMGWYRQAPGKERELVAAITGRGGSTYYADSVKGRFTISRDNAKNTVYLQMNSLKPEDTAVYYCAAYEFGFLRYYSGRSYYYWGQGTQVTVSS | high polyreactivity
QVQLVESGGGLVQAGGSLRLSRAASGRTFYGYAMGWYRQAPGKESELVARIRSGGSTNYADSVKGRFTISRDNAKNTFYLQMNSLIPEDTAVYYCAARPGAAGYKYYYWGQGTQVTVSS | high polyreactivity
QVQLVESGGGLVQAGGSLRLSSAASGFICATYSMGWYRQAPGKERELVASIRKSGGSTYYADSVKGRFTISRDNAKNTVYLQMNSLKPEDTAVYYCAKVYRYYPKYNYWGQGTQVTVSS | high polyreactivity
QVQLVESGGGLVQAGGSLRLSSAASGFIFEDYAMGWYREAPGKARELFAAISRRGGSTYYADSVKGRFTISRDNAQNTVYLQMNSLKPEDTADYYCAARKRYRPGERYEYWGQGTQVTVSS | high polyreactivity
QVQLVESGGGLVQAGGSLRLSSAASGFIFEPYAMGWYRQAPGKERELVAAIRWSDGSTFYADSVKGRFTISRDTAKNTVYLQMNSLKPEDSAVYYCNAVYEHRRVGWVTIDYGYWGQGTQVTVSS | low polyreactivity
QVQLVESGGGLVQAGGSLRLSSAASGFIFPAYAMGWYRQAPGKDRELVAAISKSGGRTYYADSVKGRFTISRDNAKNTVYLQMNSLKPEDTAVYYCNKYRYPREQYTWKYAWGYDYWGQGTQVTVSS | high polyreactivity
QVQLVESGGGLVQAGGSLRLSSAASGFIFRRYAMGWYRQAPGKERELVAAISGSGGRTYYADSVKGRFTISRDNAKNSVYLQMNSLKPEDTAVYYCAADQGSLLYDYWGQGTKVTVSS | high polyreactivity
QVQLVESGGGLVQAGGSLRLSSAASGFTFEENAMGWYRQAPGKERELVAAINWSGGNTYYADSVKGRFTISRDNAKNTVYLQMNSLKPEDTAVYYCAAVSTRYYYSVGPYYGYDYWVQGTQVTVSS | high polyreactivity
QVQLVESGGGLVQAGGSLRLSSAASGFTFSDNAMGWYRQAPGKERELVAAISRSGGNTHYADSVKGRFTISRDNAKNTVYLQMNSLKPEDTAVYYCAKYLYKSRIRSTFDYWGQGTQVTVSS | high polyreactivity
QVQLVESGGGLVQAGGSLRLSSAASGFVCNAMGWYRQAPGKERDLVAAIDSSGGNTYYADSVKGRFTISRDNAKNTVYLQMNSMKPEDTAVYYCAARYVERHTDYYYWGQGTQVTVSS | low polyreactivity

Sequence | polyreactivity (PSR sort gate)
QVQLVESGGGLVQAGGSLRLSSAASGGTFGFNAMGWYRQAPGKERELVSGISSRGGSTYYADSVKGRFTISRDYAKNTVYLQMNSLKPEDTAVYYCNARQYPGRSWYRYDYWGQGTQVTVSS | high polyreactivity
QVQLVESGGGLVQAGGSLRLSSAASGIICAIYAMGWYRQAPGKERELVAAITWRGGSTYYADSVKGRFTISRDNAKNSVYFQKNRLKPEDTAVYYCAAVTKSLYGYDYWGQGTQVNVSS | low polyreactivity
QVQLVESGGGLVQAGGSLRLSSAASGITFGAYAMGWYRPAPGKERELVAAIRRSDGSTYYADSVKGRFTISRDNAKNTVDLQINSLKPEETAVYYCAADEGLYQGYEYDYWGHGTQVTVSS | high polyreactivity
QVQLVESGGGLVQAGGSLRLSSAASGITFGRNTMGWYRQAPGKEREFVAAIDSGGNTYADSVQGRFTISRDNAKNTVYLQMNSLKPEDTAVYYCAVAGGEFSSYGYLGQGTQVTVSS | low polyreactivity
QVQLVESGGGLVQAGGSLRLSSAASGITFRNYAMGWSRQAPGKERELVAAITRGGRTNYADSVKGRFTISRDNAKNTVYLQMNSLKPEDTAVYYCATGRDSNFGNSYYYWGQGTQVTVSS | high polyreactivity
QVQLVESGGGLVQAGGSLRLSSAASGITFTRNAMGWYRQAPGKERELVATIDSGDSTYYADSVKGRFTISRDNAKNTVYLQMNSQKPEDTAVYYCAAEWYGYEPSYWYYWPYEYWGQGTQVTVSS | high polyreactivity
QVQLVESGGGLVQAGGSLRLSSAASGLIFRHNAMGWYRQAPGKERELVAAISSTGGRTYYADSVKGRFTISRDNAKNTVYLQMNSLKPEDTAVYYCAARHTKALWSPQNGYYWGQGTQVTVSS | high polyreactivity
QVQLVESGGGLVQAGGSLRLSSAASGLIFWAYAMGWYRQAPGKERELVAAINSGGRTYYADSVKGRFTISRDNAKNTVYLQMNSLKPEDTAVYYCAAAGVYSSDYWGQGTQVTVSS | low polyreactivity
QVQLVESGGGLVQAGGSLRLSSAASGLTFQEYAMGWYRQAPGKESELVAAISWSGGSTYYADSVKGRFTISRDNAKNTVYLQMNSLKPEDTAVYYCAAEAYEEYITGWYAYDYWGQGTQVTVSS | high polyreactivity
QVQLVESGGGLVQAGGSLRLSSAASGLTFTYYVMGWYRQAPGKERELVAAITVSGGSTYYADSVKGRFTISRDNAKNTVYLQMNSLKPEDTAVYYCAADAYSGYSDYYWGQGTQVTVSS | low polyreactivity
QVQLVESGGGLVQAGGSLRLSSAASGLTIAPYARGWYRPAPGKVWELVAAITQRGSSTYYADSVKGRFTISRDNAKNTVYLQMNSLKRVDTAVYYCAARYRARYYWGQGTQVTVSS | high polyreactivity
QVQLVESGGGLVQAGGSLRLSSAASGNINSWNTMGWYRQAPGKERELVAAITFRGTRTFYADSVKGRFTISRDNAKNTVYLQMNSLKPDDTAVFYCAARYYYSYSLGYDYWGQGTQVTVSS | high polyreactivity
QVQLVESGGGLVQAGGSLRLSSAASGNTIYGYAMGWYRQAPGNERELVASITLSGDSTYYADSVKGRFTISRDNAKNTVYLQMNSLKPEDTAVYYCAGVYTYPLGYYHYTYDYWGQGTQVTVSS | low polyreactivity
QVQLVESGGGLVQAGGSLRLSSAASGRIFAHNAMGWSRQAPGKERELVAAITWSGGSTYYADSVKGRFTISRDNAKNTVYLQMNSLKPEDTAVYYCNTDSHGHLYIYWGQGNQVTVSS | low polyreactivity
QVQLVESGGGLVQAGGSLRLSSAASGRIFPGYSMGWYRQAPGKERELVASISRTGRTNYADSVKGRFTNSRDNAKNTVYLPMHSLKPEDTAVYYCAAGIVVTGYDYWGQGTQVSVSS | low polyreactivity
QVQLVESGGGLVQAGGSLRLSSAASGRIFRRNTMGWYRQAPGKERELVAAITSSGGSTYADSVKGRFTISRDNAKNTVYLQMNSLKPEDTAVYYCATYVAYHRGYRTYDHWGQGTQVTVSS | low polyreactivity
QVQLVESGGGLVQAGGSLRLSSAASGRIFSDYDMGWYRQAHGKERELVAAITSGGITNYADSVKGRFTISRDNAKNTVYLQMNSLKPEDTAVYYCATGRRRYYFREYYYWGQGTQVTVSS | high polyreactivity
QVQLVESGGGLVQAGGSLRLSSAASGRIFWTNAMGWYRQAPGKERELVAGITWRGGSTYYADSVKGRFTISRDNAKNTVSLQMNSLKPEDTAVYYCASRQGWYSGFDYWGQGTQVTVSS | high polyreactivity
QVQLVESGGGLVQAGGSLRLSSAASGRIFYNYAMGWYRQAPGKERELVAAISVSGGSTYYADSVKGRFTISRDNAKNTVYLQMNSLKPEDTAVYYCAAGRGYTYNYWGQGSQVTVSS | high polyreactivity
QVQLVESGGGLVQAGGSLRLSSAASGRMFHFNAMGWYRQARGKERELVARITFSGGSTYYADSVKGRFTISRDNAKNTVYLQMNSLKPEDTAVYYCAVDAPPIFYEGGDYWGQGTQVTVSS | low polyreactivity
QVQLVESGGGLVQAGGSLRLSSAASGRNFGPYTMRWSRQAPGKERELVATISYSGSTTYYADSVKGRFTISRDNAKNTVYLQMNSLKPEDTAVYYCNAQYYVFITFDYWGQGTQVTVSS | high polyreactivity
